Measurements: the supplement of paper PMC9112550, “Optimization of the antimicrobial peptide Bac7 by deep mutational scanning” (BMC Biology, 2022)

Tested on: Escherichia coli TOP10
Experiment: shrunken log2 fold change of peptide-encoding DNA abundance (4.5 h post-induction vs induction); higher = less antimicrobial activity (less host growth inhibition)
Settings: time post-induction: 4.5 h; library: site-saturation at positions 5, 18, 19, 20
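Note: peptides expressed intracellularly from a pBAD plasmid library in pooled LB shake-flask culture, induced with 0.3% L-arabinose, DNA abundance read by NGS, three biological replicates, DESeq2 with apeglm shrinkage.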

| Sequence | shrunken log2 fold change |
| --- | --- |
| RRIRIRPPRLPRPRPRPWWVPRP | -0.077 |
| RRIRYRPPRLPRPRPRPFNWPRP | -0.238 |
| RRIRIRPPRLPRPRPRPQWTPRP | -0.0472 |
| RRIRNRPPRLPRPRPRPFVMPRP | -0.0984 |
| RRIRIRPPRLPRPRPRPVMLPRP | -0.776 |
| RRIRLRPPRLPRPRPRPGIMPRP | -0.219 |
| RRIRTRPPRLPRPRPRPLSGPRP | -0.0581 |
| RRIRVRPPRLPRPRPRPWKDPRP | -0.00963 |
| RRIRQRPPRLPRPRPRPDGIPRP | 0.087 |
| RRIRTRPPRLPRPRPRPYWDPRP | -0.0758 |
| RRIRGRPPRLPRPRPRPGDVPRP | 0.347 |
| RRIRGRPPRLPRPRPRPVIHPRP | 0.0507 |
| RRIRKRPPRLPRPRPRPPIIPRP | -0.146 |
| RRIRVRPPRLPRPRPRPRYYPRP | -0.0159 |
| RRIRVRPPRLPRPRPRPGECPRP | -0.145 |
| RRIRLRPPRLPRPRPRPCYFPRP | -0.232 |
| RRIRERPPRLPRPRPRPGEHPRP | 0.0251 |
| RRIRCRPPRLPRPRPRPVYPPRP | -0.559 |
| RRIRWRPPRLPRPRPRPLAPPRP | 0.664 |
| RRIRLRPPRLPRPRPRPTHFPRP | 0.362 |
| RRIRDRPPRLPRPRPRPLPGPRP | 0.312 |
| RRIRYRPPRLPRPRPRPNWDPRP | -0.863 |
| RRIRWRPPRLPRPRPRPVTNPRP | 0.266 |
| RRIRSRPPRLPRPRPRPWNRPRP | -0.125 |
| RRIRARPPRLPRPRPRPEITPRP | 0.784 |

| Sequence | shrunken log2 fold change |
| --- | --- |
| RRIRMRPPRLPRPRPRPCHTPRP | 0.0555 |
| RRIRIRPPRLPRPRPRPYCEPRP | -0.21 |
| RRIRLRPPRLPRPRPRPNTVPRP | -0.0627 |
| RRIRNRPPRLPRPRPRPCYAPRP | -0.424 |
| RRIRKRPPRLPRPRPRPYKDPRP | -0.213 |
| RRIRQRPPRLPRPRPRPRPHPRP | 0.483 |
| RRIRDRPPRLPRPRPRPRLCPRP | 0.265 |
| RRIRSRPPRLPRPRPRPIWQPRP | -0.0554 |
| RRIRRRPPRLPRPRPRPKAFPRP | -0.0104 |
| RRIRGRPPRLPRPRPRPISRPRP | 0.0494 |
| RRIRKRPPRLPRPRPRPRREPRP | 0.853 |
| RRIRTRPPRLPRPRPRPKGQPRP | 0.0118 |
| RRIRARPPRLPRPRPRPKYPPRP | -0.178 |
| RRIRSRPPRLPRPRPRPMDNPRP | -0.0175 |
| RRIRARPPRLPRPRPRPIKMPRP | 0.0129 |
| RRIRKRPPRLPRPRPRPRTSPRP | 0.525 |
| RRIRARPPRLPRPRPRPLYMPRP | -0.48 |
| RRIRHRPPRLPRPRPRPFKVPRP | -0.0904 |
| RRIRFRPPRLPRPRPRPMVEPRP | -0.0547 |
| RRIRKRPPRLPRPRPRPPDLPRP | 0.444 |
| RRIRSRPPRLPRPRPRPAIRPRP | -0.0385 |
| RRIRIRPPRLPRPRPRPSKPPRP | -0.189 |
| RRIRQRPPRLPRPRPRPPWFPRP | -0.018 |
| RRIRKRPPRLPRPRPRPTTKPRP | -0.0244 |
| RRIRARPPRLPRPRPRPIVSPRP | 0.0293 |

| Sequence | shrunken log2 fold change |
| --- | --- |
| RRIRDRPPRLPRPRPRPGPTPRP | 0.355 |
| RRIRYRPPRLPRPRPRPSEYPRP | -0.431 |
| RRIRVRPPRLPRPRPRPFNEPRP | -0.258 |
| RRIRKRPPRLPRPRPRPHAQPRP | 0.133 |
| RRIRPRPPRLPRPRPRPLGFPRP | 0.49 |
| RRIRHRPPRLPRPRPRPFKLPRP | -0.196 |
| RRIRQRPPRLPRPRPRPGKAPRP | 0.0185 |
| RRIRMRPPRLPRPRPRPHWSPRP | 0.0857 |
| RRIRMRPPRLPRPRPRPGELPRP | -0.0122 |
| RRIRCRPPRLPRPRPRPCVFPRP | -0.0388 |
| RRIRTRPPRLPRPRPRPVWMPRP | -0.0336 |
| RRIRPRPPRLPRPRPRPRMTPRP | 0.288 |
| RRIRVRPPRLPRPRPRPNSQPRP | -0.131 |
| RRIRSRPPRLPRPRPRPMDIPRP | -0.00112 |
| RRIRCRPPRLPRPRPRPGSIPRP | -0.311 |
| RRIRSRPPRLPRPRPRPTRQPRP | 0.215 |
| RRIRDRPPRLPRPRPRPKWSPRP | -0.0182 |
| RRIRGRPPRLPRPRPRPFWQPRP | 0.467 |
| RRIRKRPPRLPRPRPRPYVKPRP | -0.312 |
| RRIRSRPPRLPRPRPRPLSMPRP | -0.115 |
| RRIRGRPPRLPRPRPRPMIKPRP | 2.22 |
| RRIRIRPPRLPRPRPRPLKKPRP | -0.094 |
| RRIRRRPPRLPRPRPRPASTPRP | -0.0241 |
| RRIRYRPPRLPRPRPRPSTGPRP | -0.0197 |
| RRIRHRPPRLPRPRPRPVLTPRP | -0.107 |

| Sequence | shrunken log2 fold change |
| --- | --- |
| RRIRNRPPRLPRPRPRPDCNPRP | -0.0899 |
| RRIRIRPPRLPRPRPRPEVCPRP | 0.503 |
| RRIRCRPPRLPRPRPRPSECPRP | -0.0818 |
| RRIRIRPPRLPRPRPRPRKCPRP | -0.599 |
| RRIRARPPRLPRPRPRPHCHPRP | -0.195 |
| RRIRNRPPRLPRPRPRPFYDPRP | 0.18 |
| RRIRLRPPRLPRPRPRPQVEPRP | 0.0591 |
| RRIRSRPPRLPRPRPRPTLRPRP | -0.197 |
| RRIRLRPPRLPRPRPRPQCDPRP | -0.118 |
| RRIRARPPRLPRPRPRPPMDPRP | 0.515 |
| RRIRTRPPRLPRPRPRPNECPRP | -0.0286 |
| RRIRCRPPRLPRPRPRPRKVPRP | 0.196 |
| RRIRSRPPRLPRPRPRPFWFPRP | -0.113 |
| RRIRDRPPRLPRPRPRPTSWPRP | 0.989 |
| RRIRCRPPRLPRPRPRPIHPPRP | 0.00281 |
| RRIRHRPPRLPRPRPRPSNYPRP | -0.28 |
| RRIRWRPPRLPRPRPRPNKEPRP | -0.0697 |
| RRIRARPPRLPRPRPRPNCGPRP | 0.281 |
| RRIRVRPPRLPRPRPRPMAMPRP | -0.00688 |
| RRIRCRPPRLPRPRPRPVVKPRP | 0.0236 |
| RRIRTRPPRLPRPRPRPMWPPRP | -0.0463 |
| RRIRCRPPRLPRPRPRPNQAPRP | -0.146 |
| RRIRNRPPRLPRPRPRPDHKPRP | -0.398 |
| RRIRARPPRLPRPRPRPAFDPRP | 1 |
| RRIRTRPPRLPRPRPRPQIKPRP | -0.0374 |

| Sequence | shrunken log2 fold change |
| --- | --- |
| RRIRNRPPRLPRPRPRPLRQPRP | 0.154 |
| RRIRHRPPRLPRPRPRPVLGPRP | 0.463 |
| RRIRDRPPRLPRPRPRPKVDPRP | -0.118 |
| RRIRERPPRLPRPRPRPTHTPRP | -0.409 |
| RRIRQRPPRLPRPRPRPMVAPRP | 0.143 |
| RRIRGRPPRLPRPRPRPRNTPRP | 0.0904 |
| RRIRVRPPRLPRPRPRPECLPRP | 0.0466 |
| RRIRSRPPRLPRPRPRPWGAPRP | 0.0522 |
| RRIRPRPPRLPRPRPRPMNPPRP | 0.00824 |
| RRIRQRPPRLPRPRPRPCLPPRP | -0.186 |
| RRIRKRPPRLPRPRPRPMWDPRP | -0.0178 |
| RRIRHRPPRLPRPRPRPNWLPRP | -0.165 |
| RRIRYRPPRLPRPRPRPPPPPRP | 1.2 |
| RRIRPRPPRLPRPRPRPIIWPRP | -0.0266 |
| RRIRKRPPRLPRPRPRPCDIPRP | -0.0579 |
| RRIRWRPPRLPRPRPRPAPHPRP | 0.491 |
| RRIRIRPPRLPRPRPRPTDEPRP | 0.125 |
| RRIRHRPPRLPRPRPRPLNNPRP | -0.684 |
| RRIRGRPPRLPRPRPRPGQCPRP | 0.275 |
| RRIRYRPPRLPRPRPRPSMQPRP | -0.288 |
| RRIRVRPPRLPRPRPRPHAHPRP | -0.256 |
| RRIRTRPPRLPRPRPRPVDTPRP | 0.0439 |
| RRIRVRPPRLPRPRPRPAVTPRP | -0.269 |
| RRIRMRPPRLPRPRPRPEEAPRP | 3.94 |
| RRIRPRPPRLPRPRPRPYCRPRP | 0.0122 |

| Sequence | shrunken log2 fold change |
| --- | --- |
| RRIRLRPPRLPRPRPRPHYPPRP | -0.736 |
| RRIRSRPPRLPRPRPRPTITPRP | -0.229 |
| RRIRWRPPRLPRPRPRPEVGPRP | 1.38 |
| RRIRVRPPRLPRPRPRPCKDPRP | -0.0644 |
| RRIRVRPPRLPRPRPRPYVGPRP | -0.0869 |
| RRIRWRPPRLPRPRPRPESCPRP | 0.261 |
| RRIRRRPPRLPRPRPRPRWNPRP | 0.326 |
| RRIRRRPPRLPRPRPRPKLSPRP | 0.262 |
| RRIRERPPRLPRPRPRPPDVPRP | -0.108 |
| RRIRRRPPRLPRPRPRPEWFPRP | -0.159 |
| RRIRHRPPRLPRPRPRPCAVPRP | -0.0171 |
| RRIRQRPPRLPRPRPRPEHPPRP | 0.0713 |
| RRIRNRPPRLPRPRPRPPMEPRP | -0.203 |
| RRIRERPPRLPRPRPRPYALPRP | -0.000856 |
| RRIRFRPPRLPRPRPRPKHSPRP | -0.434 |
| RRIRQRPPRLPRPRPRPIEHPRP | 0.0215 |
| RRIRTRPPRLPRPRPRPGMCPRP | -0.139 |
| RRIRQRPPRLPRPRPRPYLQPRP | 0.000139 |
| RRIRCRPPRLPRPRPRPPISPRP | -0.38 |
| RRIRHRPPRLPRPRPRPENNPRP | -0.304 |
| RRIRYRPPRLPRPRPRPANRPRP | 0.0126 |
| RRIRLRPPRLPRPRPRPMWSPRP | -0.0258 |
| RRIRTRPPRLPRPRPRPWGGPRP | 0.439 |
| RRIRYRPPRLPRPRPRPGFAPRP | -0.00507 |
| RRIRKRPPRLPRPRPRPFKCPRP | -0.0191 |
